This data set in a line: SEC; HiLoad 16/60 Superdex 75 pg; protein purified by Ni2+-NTA injected at 0.5 mM.

On to mClavGR2, for which the “area of the peak at 63 min (elutes as a dimer would), percent of monomer peak area” value was 6.7% vs. 25.8% of monomer peak area. Regarding mMaple, the “area of the peak at 63 min (elutes as a dimer would), percent of monomer peak area” value is recorded as 6.7% vs. 25.8% of monomer peak area.

Values taken from article PMC3519878.
